From patent publication US20240287165A1 (GENERAL HOSPITAL, published 2024)

Legend:
[1] = target: T1, full-length wild type human ApoE3 recombinant protein (His-tagged) (human, UniProt P02649 19-317); test: BLI (BLItz), mAb 1H4 on protein A biosensor, run with 71.43 nM ApoE3, global fit
T1 construct: Recombinant protein from Innovagen; also called ApoE3 WT full-length protein; APOE3 WT; not shown: histidine tag
Experimental: (§1) The binding affinity between ApoE3 and the monoclonal antibody 1H4 (mAb 1H4) was determined using the advanced kinetic module of the BLItz system (Blitz Pro, FB-609928, ver. 1.3.1.3). Briefly, a protein A biosensor was loaded with mAb 1H4 and both association and dissociation constants were determined at increasing concentrations of the full length ApoE3 protein (Innovagen) from 0 to 571.4 nM. The following running settings were used: 30 s initial baseline in the experimental media, 120 s loading of the ligand (mAb 1H4) on the biosensors, 30 s new baseline before association (120 s) and dissociation (120 s) steps. A total of 6 runs of 420 s at 2200 rpm and room temperature were conducted to determine the binding parameters of ApoE3. Global fitting and step corrections of the dissociation experiments were performed using the BLItz software (ver. 1.1.0.7). […] KD, Ka and Kd were measured (table 10) and calculated using the BLItz system. Top panel is representative of the association steps, the bottom panel is representative of the dissociation steps of the binding kinetic. The X and Y axes depicts time in second and binding in nM, respectively.

[2] = target: T1, full-length wild type human ApoE3 …; test: BLI (BLItz), mAb 1H4 on protein A biosensor, run with 285.7 nM ApoE3, global fit; columns shifted: value stands under 'Ka Error' but is the kd (0.04142/2900000 = 14.28 nM)
Experimental: as §1

[3] = target: T2, ApoEch peptide KLH-CTEELRVSLASHLRK-CONH2 (human, not fully specified; C-terminal amide (CONH2); printed with KLH on the added N-terminal cysteine); test: ELISA of 1H4-2 subclone serum on ApoE3ch peptide, O.D. 450 nm against dilution factor
T2 construct: also called Mut peptide; mutant ApoE peptide
T2 peptide: CTEELRVSLASHLRK

[4] = target: T1, full-length wild type human ApoE3 …; test: BLI (BLItz), mAb 1H4 on protein A biosensor, run with 285.7 nM ApoE3, global fit
Experimental: as §1

[5] = target: T1, full-length wild type human ApoE3 …; test: BLI (BLItz), mAb 1H4 on protein A biosensor, run with 35.71 nM ApoE3, global fit; columns shifted: value stands under 'Ka Error' but is the kd (0.04142/2900000 = 14.28 nM)
Experimental: as §1

[6] = target: T1, full-length wild type human ApoE3 …; test: BLI (BLItz), mAb 1H4 on protein A biosensor, run with 571.4 nM ApoE3, global fit
Experimental: as §1

[7] = target: T1, full-length wild type human ApoE3 …; test: BLI (BLItz), mAb 1H4 on protein A biosensor, run with 71.43 nM ApoE3, global fit; columns shifted: value stands under 'Ka Error' but is the kd (0.04142/2900000 = 14.28 nM)
Experimental: as §1

[8] = target: T1, full-length wild type human ApoE3 …; test: BLI (BLItz), mAb 1H4 on protein A biosensor, run with 571.4 nM ApoE3, global fit; columns shifted: value stands under 'Ka Error' but is the kd (0.04142/2900000 = 14.28 nM)
Experimental: as §1

[9] = target: T1, full-length wild type human ApoE3 …; test: BLI (BLItz), mAb 1H4 on protein A biosensor, run with 35.71 nM ApoE3, global fit
Experimental: as §1

[10] = target: T3, full-length ApoE3ch (ApoE3 Christchurch R136S) mutant recombinant protein (His-tagged) (human, UniProt P02649 19-317); test: ELISA of 1H4-2 subclone serum on ApoE3ch full length protein, O.D. 450 nm against dilution factor
T3 construct: also called ApoE3ch full length protein; APOE3ch Mutant; not shown: histidine tag
T3 sequence (P02649 19-317 R154S): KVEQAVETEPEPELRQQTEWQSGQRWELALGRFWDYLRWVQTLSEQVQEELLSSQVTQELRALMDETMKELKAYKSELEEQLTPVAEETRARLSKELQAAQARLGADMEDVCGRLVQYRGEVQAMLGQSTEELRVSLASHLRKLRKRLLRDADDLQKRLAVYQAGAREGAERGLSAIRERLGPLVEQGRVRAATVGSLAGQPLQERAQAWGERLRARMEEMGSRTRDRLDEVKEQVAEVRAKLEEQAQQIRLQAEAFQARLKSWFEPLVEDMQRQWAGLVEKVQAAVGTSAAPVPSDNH

mouse recombinant ApoE = target: T4, mouse recombinant ApoE (mouse, UniProt P08226 19-311); test: ELISA, His-tagged target on anti-His plate, serial antibody dilutions, anti-mouse HRP, O.D. 450 nm
T4 construct: also called mouse recombinant ApoE3; msApoE
T4 sequence (looked up): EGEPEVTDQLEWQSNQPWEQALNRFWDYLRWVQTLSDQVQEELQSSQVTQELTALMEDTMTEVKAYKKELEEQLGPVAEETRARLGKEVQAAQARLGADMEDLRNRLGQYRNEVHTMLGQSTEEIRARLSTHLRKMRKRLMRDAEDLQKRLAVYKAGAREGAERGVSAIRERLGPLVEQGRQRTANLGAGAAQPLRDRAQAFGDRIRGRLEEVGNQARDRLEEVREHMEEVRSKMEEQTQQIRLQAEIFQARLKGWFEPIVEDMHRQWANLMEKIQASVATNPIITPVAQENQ
Experimental: To test selectivity of the antibodies for huApoE3WT, huApoE3ch or msApoE, anti-his ELISA coated plates were incubated with 0.0025 μg/μL of the target protein for 2 h at R.T. under gentle shaking. Wells were washed 5 times with 1X wash buffer (R&D) and subsequently incubated with serial dilutions of Innovagen antibody of interest over night at 4° C. on a shaker (100 μL/well). The following day, wells were washed 5 times with sample buffer and incubated for 45 minutes using Rabbit-anti-mouse HRP-conjugated buffer (1:10,000; 100 μL/well; Abcam). After 5 more washes, plates were incubated with chromogen A+B 1:1 to initiate the colorimetric reaction (100 μL/well). The reaction was stopped with 2 N […] (R&D stop solution., 50 μL/well) and absorbance detected at 450 nm spectroscopically.

[11] = target: T1, full-length wild type human ApoE3 …; test: BLI (BLItz), mAb 1H4 on protein A biosensor, run with 142.9 nM ApoE3, global fit; columns shifted: value stands under 'Ka Error' but is the kd (0.04142/2900000 = 14.28 nM)
Experimental: as §1

[12] = target: T1, full-length wild type human ApoE3 …; test: BLI (BLItz), mAb 1H4 on protein A biosensor, run with 142.9 nM ApoE3, global fit
Experimental: as §1

[13] = target: T1, full-length wild type human ApoE3 …; test: ELISA, parental hybridoma clone
[14] = target: T3, full-length ApoE3ch (ApoE3 Christchurch …); test: ELISA, parental hybridoma clone
[15] = target: T2, ApoEch peptide KLH-CTEELRVSLASHLRK-CONH2; test: ELISA, parental hybridoma clone
[16] = target: T5, wild type ApoE peptide KLH-CTEELRVRLASHLRK-CONH2 (human, not fully specified; C-terminal amide (CONH2); printed with KLH on the added N-terminal cysteine); test: ELISA, parental hybridoma clone
T5 construct: also called WT peptide; ApoE3 WT peptide
T5 peptide: CTEELRVRLASHLRK

T1 sequence (P02649 19-317): as the sequence (P02649 19-317 R154S) above, with S136R counted along it

B1: antibody 1H4-2 (antibody, V domains shown)
VH: EVKLVESGGGVVQPGGSLKLSCAASGFTFSSYTMSWVRQTPEKRLEWVAKIRNGGGITYYLDTLKGRFTISRDNAKNTLYLQMSSLKSEDTAIYFCARHYYGSEDYFDYWGQGTTLTVSS
VL: DNVLTQSPASLAVSLGQRATISCKASQSVDYDGDSYMNWYQQKPGQPPKVFIYAASNLESGIPARFSGSGSGTDFTLNIHPVEEEDAATYYCQQSNEDPWTFGGGTKLEIK
notes: also called mAb 1H4; monoclonal 1H4 antibody
- Kd [1]: 14.3 nM
- kon [1]: 2.9e+06 M⁻¹ s⁻¹
- koff [2]: 0.0414 s⁻¹
- binding result [3]: no binding (tested: 1:10 dilution)
- Kd [4]: 14.3 nM
- kon [4]: 2.9e+06 M⁻¹ s⁻¹
- koff [5]: 0.0414 s⁻¹
- Kd [6]: 14.3 nM
- kon [6]: 2.9e+06 M⁻¹ s⁻¹
- koff [7]: 0.0414 s⁻¹
- koff [8]: 0.0414 s⁻¹
- Kd [9]: 14.3 nM
- kon [9]: 2.9e+06 M⁻¹ s⁻¹
- binding result [10]: no binding (tested: 1:10 dilution)
- binding result (mouse recombinant ApoE): no binding (tested: 1:500 dilution)
- koff [11]: 0.0414 s⁻¹
- Kd [12]: 14.3 nM
- kon [12]: 2.9e+06 M⁻¹ s⁻¹
- absorbance (ELISA) [13]: 2.11 absorbance
- absorbance (ELISA) [14]: 0.056 absorbance
- absorbance (ELISA) [15]: 0.07 absorbance
- absorbance (ELISA) [16]: 2.58 absorbance
